Results taken from PMC6097396, “Crystal structures of a llama VHH antibody BCD090-M2 targeting human ErbB3 receptor” (F1000Research, 2018).

Biological target: T1, extracellular domain (residues 21-643) of the human ErbB3 receptor (Homo sapiens, UniProt P21860)
T1 construct: ErbB3 receptor (HER3), human, extracellular domain, residues 21-643; The ErbB3 gene fragment is followed by a hexahistidine tag and a FLAG-tag; also called HER3; extracellular domain of ErbB3; source: CHO-T-HC cells, transfected (pEE vector), purified from culture fluid (HisTrap HP, Superdex 200 SEC)
Test: SPR; Biacore T200; ErbB3 extracellular domain immobilised on CM5 chip by amine coupling; BCD090-M2 injected at 1 uM down to 0.49 nM in 10 mM HEPES pH 7.4, 0.15 M NaCl, 50 ug/ml BSA; 37°C; equilibrium fit of response against concentration; mean of three experiments
Conditions: both partners purified

T1 sequence (P21860 21-643): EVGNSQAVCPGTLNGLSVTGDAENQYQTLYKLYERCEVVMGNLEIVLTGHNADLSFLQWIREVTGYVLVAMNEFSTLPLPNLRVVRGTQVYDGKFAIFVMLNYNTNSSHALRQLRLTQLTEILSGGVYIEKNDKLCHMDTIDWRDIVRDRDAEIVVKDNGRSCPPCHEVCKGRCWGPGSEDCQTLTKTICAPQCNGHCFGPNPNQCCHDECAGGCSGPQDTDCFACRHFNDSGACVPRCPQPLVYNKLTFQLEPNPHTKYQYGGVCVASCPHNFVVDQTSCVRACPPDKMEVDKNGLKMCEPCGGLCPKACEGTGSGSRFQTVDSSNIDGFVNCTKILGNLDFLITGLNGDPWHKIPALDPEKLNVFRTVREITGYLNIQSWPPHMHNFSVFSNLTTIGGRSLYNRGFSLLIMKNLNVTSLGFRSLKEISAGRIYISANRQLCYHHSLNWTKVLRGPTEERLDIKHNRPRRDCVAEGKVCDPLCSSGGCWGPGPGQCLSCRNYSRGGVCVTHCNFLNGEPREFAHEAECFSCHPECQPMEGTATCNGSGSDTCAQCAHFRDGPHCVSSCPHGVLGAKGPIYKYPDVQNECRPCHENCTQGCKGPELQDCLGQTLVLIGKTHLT

B1: llama VHH antibody BCD090-M2 (VHH)
VHH: QVQLVQSGGGLVQAGGSLRLSCAFSGRTFSMYTMGWFRQAPGKEREFVAANRGRGLSPDIADSVNGRFTISRDNAKNTLYLQMDSLKPEDTAVYYCAADLQYGSSWPQRSSAEYDYWGQGTTVTVSS
notes: 128 residues in the PDB entries; a single additional N-terminal glycine is left from the TEV recognition site; Selected by phage display from immunized llamas; also called VHH fragment of the antibody BCD090-M2; not shown: His6, N-terminal, cleaved; SUMO, N-terminal, cleaved
Kd: 15 ± 1 nM
